# Patent US20220062341A1 (KIRIN, published 2022)
# How the values were obtained:
# [1] = biological target: CD3 subunits (CD3E, CD3G, CD3D, CD3Z) (human, UniProt P07766 23-207; P09693 23-182; P04234 22-171; P20963 22-164); assay: cell-based or functional assay
# [2] = biological target: CD3E (human, UniProt P07766 23-207); assay: cell-based or functional assay
# Sequence of CD3E (P07766 23-207): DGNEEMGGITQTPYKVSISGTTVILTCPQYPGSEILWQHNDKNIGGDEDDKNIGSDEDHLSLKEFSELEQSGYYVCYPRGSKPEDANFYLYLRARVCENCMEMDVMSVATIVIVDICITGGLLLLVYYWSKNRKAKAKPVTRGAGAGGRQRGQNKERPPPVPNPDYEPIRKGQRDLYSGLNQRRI
# Sequence of CD3 subunits (CD3E, CD3G, CD3D, CD3Z) (P07766 23-207, chain 1 of 4): as the sequence (P07766 23-207) above
# Sequence of CD3 subunits (CD3E, CD3G, CD3D, CD3Z) (P09693 23-182, chain 2 of 4): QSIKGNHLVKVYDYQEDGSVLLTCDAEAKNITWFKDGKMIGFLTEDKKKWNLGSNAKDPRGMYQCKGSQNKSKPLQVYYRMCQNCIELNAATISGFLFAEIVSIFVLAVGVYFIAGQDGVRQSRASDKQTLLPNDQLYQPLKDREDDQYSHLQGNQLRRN
# Sequence of CD3 subunits (CD3E, CD3G, CD3D, CD3Z) (P04234 22-171, chain 3 of 4): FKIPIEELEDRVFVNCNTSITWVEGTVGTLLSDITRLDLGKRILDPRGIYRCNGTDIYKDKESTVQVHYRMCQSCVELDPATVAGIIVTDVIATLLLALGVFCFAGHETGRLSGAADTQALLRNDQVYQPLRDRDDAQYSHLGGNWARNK
# Sequence of CD3 subunits (CD3E, CD3G, CD3D, CD3Z) (P20963 22-164, chain 4 of 4): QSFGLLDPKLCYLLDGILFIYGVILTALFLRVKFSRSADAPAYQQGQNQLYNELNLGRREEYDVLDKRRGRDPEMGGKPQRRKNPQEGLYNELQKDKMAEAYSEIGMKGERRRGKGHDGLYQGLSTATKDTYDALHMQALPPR
Binder,"expression of CD3 (CD3-positive proportion), cells differentiated from iPS-derived HPCs (FF-WJs524), Day 21 [1] [%]","CD3E-positive proportion [%] (Avg, n = 2), CD3-stably expressing 293T cells [2]"
modified TCR ba4 (TCR) TCR alpha: NIQNPDPAVYQLRDSKSSDKSVCLFTDFDSQTNVSQSKDSDVYITDKTVLDMRSMDFKSNSAVAWSNKSDFACANAFNNSIIPEDTFFPSPESSCDVKLVEKSFETDTNLNFQNLSVIGFRILLLKVAGFNLLMTLRLWSS TCR beta: VSTDPQPLKEQPALNDSRYCLSSRLRVSATFWQNPRNHFRCQVQFYGLSENDEWTQDRAKPVTQIVSAEAWGRADCGFTSESYQQGVLSATILYEILLGKATLYAVLVSALVLMAMVKRKDSRG,38.3,10.2
modified TCR ba9 (TCR) TCR alpha: KSNSAVAWSNKSDFACANAFNNSIIPEDTFFPSPESSCDVKLVEKSFETDTNLNFQNLSVIGFRILLLKVAGFNLLMTLRLWSS TCR beta: EDLKNVFPPEVAVFEPSEAEISHTQKATLVCLATGFYPDHVELSWWVNGKEVHSGVSTDPQPLKEQPALNDSRYCLSSRLRVSATFWQNPRNHFRCQVQFYGLSENDEWTQDRAKPVTQIVSAEAWGRADCGFTSESYQQGVLSATILYEILLGKATLYAVLVSALVLMAMVKRKDSRG,99.5,90.7
